Assay [1] has as its target T1, human EphA4 extracellular region-SEAP-His protein (human, UniProt P54764 20-547).
T1 construct: also called hEphA4-SEAP-His
Kind of assay: SPR (Biacore T200), human EphA4 extracellular region-SEAP-His captured on an anti-His antibody CM5 chip, antibody as analyte at 0.6-50 nM, 1:1 fit. The method, then:
(§1) Next, the binding affinity of antibody A-Fab and antibody A-F(ab′)₂ for mouse and human EphA4 was determined by surface plasmon resonance (SPR) using Biacore T200 (GE Healthcare). Antibody A obtained in Example 1 was used as a control for the comparison of each fragment. First, an anti-His tag antibody was immobilized on sensor chip CM5. The immobilization of the anti-His tag antibody on sensor chip CM5 was performed by the amine coupling method using N-hydroxysuccinimide (NHS) and N-ethyl-N′-(3-dimethylaminopropyl)carbodiimide hydrochloride (EDC). Ethanolamine was used in blocking (the sensor chip and the reagents for immobilization were all manufactured by GE Healthcare). The antibody was diluted with a buffer solution for immobilization (10 mM sodium acetate, pH 4.5) into 3 μg/mL and immobilized on the sensor chip according to the protocol attached to Biacore T200.
(§2) Mouse or human EphA4 extracellular region-SEAP-His protein was diluted with a running buffer solution HBS-EP (GE Healthcare, BR-1001-88), injected onto a flow cell for 120 seconds, and captured (amount of the protein captured: approximately 10 to 20 RU). Subsequently, antibody A (50, 16.7, 5.6, 1.9, 0.6, and 0 nM), antibody A-Fab (500, 166.7, 55.6, 18.5, 6.2, and 0 nM), or antibody A-F(ab′)₂ (50, 16.7, 5.6, 1.9, 0.6, and 0 nM) serially diluted using HBS-EP was added to the sensor chip for 120 seconds. Binding reaction curves were sequentially observed at the time of the addition (association phase, for 120 sec) and after the completion of the addition (dissociation phase, for 900 sec). After the completion of each observation, the sensor chip was regenerated by the addition of 3 M MgCl₂ (Wako Pure Chemical Industries) (for 30 sec). The obtained binding reaction curves were subjected to fitting analysis with 1:1 binding models using software BIA evaluation attached to the system to calculate the binding affinity (KD=kd/ka) for mouse and human EphA4.
A general note: SPR reads the build-up and loss of mass on a sensor chip optically.

The target of assay [2] is T2, rat EphA4 extracellular region-Fc-His protein (rat; human, UniProt D3ZZK3 20-547).
T2 construct: range 20-547; used as culture supernatant
Description: ELISA, EphA4 extracellular region-Fc-His (1 nM) captured on the plate, antibody A titrated, HRP anti-mouse IgG detection, OD 450 nm. On the procedure: Each well of a 96-well plate (Nunc) was coated with a […] (Jackson ImmunoResearch Laboratories). After incubation overnight at 4° C., each well was blocked with 1% BlockAce (Sumitomo Dainippon Pharma) at room temperature for 1 hour. After washing with 0.05% Tween 20/PBS (Nacalai Tesque) three times, the mouse, rat, monkey, or human EphA4 extracellular region-Fc-His protein was disseminated (final concentration: 1 nM) to each well and incubated at room temperature for 1 hour. After washing three times, a human IgG solution (100 μg/mL, Mitsubishi Pharma) and antibody A (0, 0.00128, 0.0064, 0.032, 0.16, 0.8, 4, and 20 μg/mL) were added to each well and incubated at room temperature for 1 hour. A horseradish peroxidase-labeled donkey anti-mouse IgG antibody (Jackson ImmunoResearch Laboratories) was added thereto and incubated at room temperature for 1 hour. After washing three times, a TMBZ (3,3′,5,5′-tetramethylbenzidine, Sigma-Aldrich) solution was added to each well. After confirmation of moderate color development, an equal amount of a reaction stopping solution (1N H₂SO₄, Wako Pure Chemical Industries) was added to each well. The absorbance at 450 nm was read using a microplate reader (PerkinElmer).
For orientation: In an ELISA, binding on a coated surface is turned into a signal by an enzyme label.

Assay [3] deals with T1, human EphA4 extracellular …. Kind of assay: SPR (Biacore T200), human EphA4 extracellular region-SEAP-His captured on an anti-His antibody CM5 chip, antibody as analyte at 0.6-50 nM, 1:1 fit (run alongside F(ab')2). On the procedure:
as §1, §2

In assay [4] the target is mouse EphA4 extracellular region-SEAP-His protein (mouse). Description: SPR (Biacore T200), mouse EphA4 extracellular region-SEAP-His captured on an anti-His antibody CM5 chip, antibody as analyte at 0.6-50 nM, 1:1 fit. On the procedure:
as §1, §2

The record followed here is US20190077860A1 (EISAI R AND D MANAGEMENT, published 2019).

T1 sequence (P54764 20-547): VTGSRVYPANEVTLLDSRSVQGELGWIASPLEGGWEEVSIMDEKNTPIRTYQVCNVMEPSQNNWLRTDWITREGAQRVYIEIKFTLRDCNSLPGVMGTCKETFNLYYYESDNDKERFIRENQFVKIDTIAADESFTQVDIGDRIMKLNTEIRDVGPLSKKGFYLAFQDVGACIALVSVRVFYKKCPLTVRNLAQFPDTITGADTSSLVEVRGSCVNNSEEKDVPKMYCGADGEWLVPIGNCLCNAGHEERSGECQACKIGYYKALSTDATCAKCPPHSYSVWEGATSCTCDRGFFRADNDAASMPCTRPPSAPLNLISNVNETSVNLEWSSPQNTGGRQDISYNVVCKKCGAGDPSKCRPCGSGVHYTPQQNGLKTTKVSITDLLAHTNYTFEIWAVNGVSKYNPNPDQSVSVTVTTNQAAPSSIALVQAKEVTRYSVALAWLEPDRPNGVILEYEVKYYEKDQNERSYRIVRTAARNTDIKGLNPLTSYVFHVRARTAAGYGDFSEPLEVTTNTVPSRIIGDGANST
mouse EphA4 extracellular region-SEAP-His protein (mouse), sequence (chain, as listed by the source limits assumed): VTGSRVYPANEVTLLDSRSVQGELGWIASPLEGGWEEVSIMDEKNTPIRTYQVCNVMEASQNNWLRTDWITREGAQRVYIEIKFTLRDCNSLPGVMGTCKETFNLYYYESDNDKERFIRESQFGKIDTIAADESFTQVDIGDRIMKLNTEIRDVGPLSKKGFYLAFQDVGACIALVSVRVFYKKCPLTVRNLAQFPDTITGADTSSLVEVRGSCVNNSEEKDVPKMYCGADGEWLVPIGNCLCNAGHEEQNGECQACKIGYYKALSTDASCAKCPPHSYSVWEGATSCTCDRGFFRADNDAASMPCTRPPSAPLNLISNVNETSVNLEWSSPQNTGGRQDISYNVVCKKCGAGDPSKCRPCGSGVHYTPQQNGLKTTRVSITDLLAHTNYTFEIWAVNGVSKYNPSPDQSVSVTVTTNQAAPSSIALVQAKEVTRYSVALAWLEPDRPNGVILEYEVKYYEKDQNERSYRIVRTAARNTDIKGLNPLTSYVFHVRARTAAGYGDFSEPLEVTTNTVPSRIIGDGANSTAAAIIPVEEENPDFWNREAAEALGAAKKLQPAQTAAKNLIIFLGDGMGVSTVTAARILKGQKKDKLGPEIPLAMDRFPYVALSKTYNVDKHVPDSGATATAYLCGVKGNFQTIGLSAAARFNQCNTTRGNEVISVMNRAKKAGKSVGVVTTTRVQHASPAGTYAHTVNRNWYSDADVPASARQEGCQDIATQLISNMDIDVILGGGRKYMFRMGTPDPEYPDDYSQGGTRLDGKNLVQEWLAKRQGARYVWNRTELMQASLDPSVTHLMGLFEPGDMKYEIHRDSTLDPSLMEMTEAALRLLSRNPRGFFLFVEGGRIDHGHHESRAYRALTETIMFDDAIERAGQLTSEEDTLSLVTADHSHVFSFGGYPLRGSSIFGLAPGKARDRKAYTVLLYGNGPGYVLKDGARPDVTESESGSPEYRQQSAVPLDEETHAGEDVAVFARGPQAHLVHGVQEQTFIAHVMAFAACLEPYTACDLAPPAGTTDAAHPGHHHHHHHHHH

B1: antibody A (antibody, mouse IgG1, kappa, V domains shown)
VH: QIQLVQSGPELKKPGETVKISCKASGYTFTDYSMHWVKQAPGKGLKWMGWINTETGEPTYADDFKGRFAFSLETSASTAYLQINNLKNEDTATYFCARIPLYYYGSRYWYFDVWGAGTTVTVSS
VL: DIQMTQSPASLSVSVGETVTITCRASENIYRNLAWYQQKQGKSPQLLVYAATNLADGVPSRFSGSGSGTQYSLKINSLQSEDFGSYYCQHFWGTPWTFGGGTKLEIKR
notes: mouse IgG1 heavy chain, kappa light chain; purified from hybridoma supernatant; also called anti-EphA4 monoclonal antibody; antibody A-IgG
In assay [1], B1 had a Kd of 0.144 nM, a dissociation rate constant (koff) of 0.000389 s⁻¹ and a kon of 2.7e+06 M⁻¹ s⁻¹. For the same molecule, the “EC50 (read off the curve)” value in assay [2] is ~0.1 nM. In assay [3], binding was put at a Kd of 0.0399 nM, the koff came to 0.000236 s⁻¹ and the kon is 5.91e+06 M⁻¹ s⁻¹. Also, in assay [4], binding was put at a Kd of 0.147 nM, the off-rate constant (koff) is 0.000423 s⁻¹ and the kon amounted to 2.88e+06 M⁻¹ s⁻¹.

A word on the Kd: it is the concentration at which binding is half-saturated. High values mean weaker binding, low ones tighter binding. One may read the koff as the first-order rate constant of dissociation. The low end stands for a long-lived complex, the high end for a short-lived complex. As usually defined, the kon is the second-order rate constant of association. The term EC50 (read off the curve) denotes the concentration that produces a half-maximal response.
